{
  "source": "patent US8444970B2",
  "about": "“Compositions and methods for treating ocular diseases and conditions” (Lpath, Inc., priority 2006, dated 2013)",
  "molecules": {"B1": {"name": "LT1002: murine anti-S1P monoclonal antibody, IgG1 kappa, hybridoma clone 306D326.26 (antibody, listed as Mus sp., V domains shown)", "VH": "QAHLQQSDAELVKPGASVKISCKVSGFIFIDHTIHWMKQRPEQGLEWIGCISPRHDITKYNEMFRGKATLTADKSSTTAYIQVNSLTFEDSAVYFCARGGFYGSTIWFDFWGQGTTLTVS", "VL": "ETTVTQSPASLSMAIGEKVTIRCITTTDIDDDMNWFQQKPGEPPNLLISEGNILRPGVPSRFSSSGYGTDFLFTIENMLSEDVADYYCLQSDNLPFTFGSGTKLEIK"}},
  "key": {"[1]": {"tested_on": "cardiac fibroblasts from transgenic mice expressing collagen-GFP", "assay": "S1P-stimulated collagen gene expression (collagen-GFP reporter)", "type": "cell-based, mouse", "details": "1 ug/mL antibody, 12-24 hr", "description": "FIG. 7. […] See Example 7, below, for experimental details. […] In these experiments, fibroblasts were serum-starved and then treated with 0, 0.1, 0.5, or 1 μM S1P+/−1 μg/mL SPHINGOMAB for 12-24 hr. […] SPHINGOMAB neutralized each of these S1P effects. SPHINGOMAB reduced perivascular fibrosis in vivo in a murine model of a permanent myocardial infarction (E).\nS1P makes profound contributions to wound healing by activating fibroblast migration, proliferation and collagen production; SPHINGOMAB neutralizes these effects. Several studies using multiple types of fibroblasts confirm S1P's ability to promote wound healing: 1) S1P increased Swiss-3T3 fibroblast proliferation as measured by ^3H-thymidine incorporation using standard methods (FIG. 7A); 2) S1P promoted the migration of cardiac fibroblasts in a standard scratch wound healing assay. […] In each of these assays, SPHINGOMAB neutralized S1P's. It is anticipated that ocular fibroblasts would respond similarly to S1P and SPHINGOMAB."}, "HUVECs [2]": {"tested_on": "HUVECs", "assay": "HUVEC migration, Matrigel chemoinvasion assay", "type": "cell-based, human", "details": "1 uM S1P, 1 ug/ml antibody, 6 hr", "description": "(§1) FIG. 5. FIG. 5 has two panels, A and B. In panel A, S1P is shown to promote neovascularization through induction of HUVECs tube formation and migration, which is reduced by SPHINGOMAB. […] The number of cells that migrated to the Matrigel membrane were counted in five independent fields.\n(§2) Experiments were performed as described by Visentin et al. (Cancer Cell 2006 March; 9(3):225-38)."}, "HUVECs [3]": {"tested_on": "HUVECs", "assay": "HUVEC tube formation on Matrigel", "type": "cell-based, human", "details": "co-incubated with S1P, GF-reduced Matrigel, 6 hr", "description": "as §1, §2"}, "[4]": {"assay": "Stability after thermochallenge (TM)", "type": "physicochemical", "details": "thermochallenge of supernatants", "description": "iii. Stability. The humanized variants were tested for stability after challenge at high temperature. The approximate midpoints of the thermal unfolding transitions (TM) were determined for every humanized variant by subjecting the supernatants to temperatures ranging from 60 to 74° C. These temperatures were chosen based on the denaturation profile observed for the murine antibody molecule after thermochallenging between a broad range of temperatures between 50 and 80° C. The binding properties of each variant were determined before and after thermochallenge."}, "[5]": {"tested_on": "CNV lesions after laser rupture of Bruch's membrane", "assay": "CNV animal model of AMD, murine vs humanized mAbs (Example 17)", "type": "in vivo, mouse", "details": "0.5 ug intravitreal Day 0 and Day 6, 14 days post laser", "description": "The humanized antibody variants and the murine antibody were compared for their ability to inhibit neo-vascularization in the CNV animal model of AMD as shown in FIG. 13. […] Mice were sacrificed 14 days post laser surgery. Control mice were treated with aqueous buffer (PBS) or an isotype-matched non-specific antibody. Three of the humanized variants inhibited angiogenesis essentially equivalently to the murine antibody as assessed by measurement of CNV area. CNV lesion volumes are represented as means±SEM. […]\nThe morphometric and volumetric CNV lesions were measured as follows. […]\nCaptured digital images were evaluated morphometrically using ImageJ software (Research Services Branch, National Institutes of Health, Bethesda, Md.). Images were split into separate RGB channels for analysis of the red and green channels as follows: 1) a calibration for the specific objective and microscope was applied to set the pixel-to-length ratio; 2) a threshold was applied using the Otsu algorithm; 3) images will be made binary; 4) a region-of-interest (ROI) was outlined to include the entire lesion area; 5) a particle analysis was performed to quantify the pixel area above the threshold level within the ROI. […]"}},
  "data": [
    {"molecule": "B1", "values": [
      {"measurement": "S1P-promoted collagen expression", "setting": "[1]", "result": "neutralized"},
      {"measurement": "S1P-induced HUVEC tube formation and migration", "setting": "HUVECs [2]", "result": "reduced"},
      {"measurement": "formation of capillary-like structures", "setting": "HUVECs [3]", "result": "failed to form capillary-like structures"},
      {"measurement": "TM (approximate midpoint of thermal unfolding transition)", "setting": "[4]", "result": 65, "unit": "°C"},
      {"measurement": "Percent inhibition of lesion size", "setting": "[5]", "result": "approximately 80%"}
    ]}
  ]
}
